Measurements from US20170306033A1 (Amgen, published 2017).
Positions count from the first letter of the chain named.

T1: human PAC1 receptor (human, UniProt P41586 21-468)
T1 sequence: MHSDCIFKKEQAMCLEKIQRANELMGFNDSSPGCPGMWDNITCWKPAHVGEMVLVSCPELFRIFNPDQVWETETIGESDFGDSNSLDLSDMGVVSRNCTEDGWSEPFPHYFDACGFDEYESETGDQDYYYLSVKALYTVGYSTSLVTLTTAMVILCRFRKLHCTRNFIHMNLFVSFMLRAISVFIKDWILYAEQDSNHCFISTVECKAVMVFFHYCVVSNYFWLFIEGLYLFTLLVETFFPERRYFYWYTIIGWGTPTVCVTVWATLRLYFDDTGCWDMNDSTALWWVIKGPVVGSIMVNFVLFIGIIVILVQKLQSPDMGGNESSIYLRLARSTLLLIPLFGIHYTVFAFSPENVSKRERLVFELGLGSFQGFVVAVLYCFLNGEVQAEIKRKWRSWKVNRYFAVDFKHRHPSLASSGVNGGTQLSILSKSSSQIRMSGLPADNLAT

B1: iPS:327111 (bispecific antibody, human IgG1, kappa, lambda, N297G)
light 1: DIQLTQSPSFLSASVGDRVTITCRASQSIGRSLHWYQQKPGKAPKLLIKYASQSLSGVPSRFSGSGSGTEFTLTISSLQPEDFATYYCHQSSRLPFTFGPGTKVDIKRTVAAPSVFIFPPSDEQLKSGTASVVCLLNNFYPREAKVQWKVDNALQSGNSQESVTEQDSKDSTYSLESTLTLSKADYEKHKVYACEVTHQGLSSPVTKSFNRGEC
heavy 1: not shown
light 2: not shown
heavy 2: not shown
B2: iPS:327269 (bispecific antibody, human IgG1, kappa, lambda, N297G)
light 1: B1 light 1
heavy 1: not shown
light 2: not shown
heavy 2: not shown
B3: iPS:327108 (bispecific antibody, human IgG1, kappa, lambda, N297G)
light 1: EIVLTQSPATLSLSPGERATLSCRASQSVGRSLHWYQQKPGQAPRLLIKYASQSLSGIPARFSGSGSGTDFTLTISSLEPEDFAVYYCHQSSRLPFTFGEGTKVDIKRTVAAPSVFIFPPSDEQLKSGTASVVCLLNNFYPREAKVQWKVDNALQSGNSQESVTEQDSKDSTYSLESTLTLSKADYEKHKVYACEVTHQGLSSPVTKSFNRGEC
heavy 1: not shown
light 2: not shown
heavy 2: EVQLVESGGGLVKPGGSLRLSCAASGFTFGNAWMSWVRQAPGKELEWVGRIKSKTDGGTTDYAAPVKGRFTISRDDSKNTLYLQMNSLKTEDTAVYFCTTDRTGYSISWSSYYYYYGMDVWGQGTTVTVSSASTKGPSVFPLAPSSKSTSGGTAALGCLVKDYFPEPVTVSWNSGALTSGVHTFPAVLQSSGLYSLESVVTVPSSSLGTQTYICNVNHKPSNTKVDKKVEPKSCDKTHTCPPCPAPELLGGPSVFLFPPKPKDTLMISRTPEVTCVVVDVSHEDPEVKFNWYVDGVEVHNAKTKPCEEQYGSTYRCVSVLTVLHQDWLNGKEYKCKVSNKALPAPIEKTISKAKGQPREPQVYTLPPSRKEMTKNQVSLTCLVKGFYPSDIAVEWESNGQPENNYKTTPPVLKSDGSFFLYSKLTVDKSRWQQGNVFSCSVMHEALHNHYTQKSLSLSPGK
B4: iPS:327105 (bispecific antibody, human IgG1, kappa, lambda, N297G)
light 1: DIQMTQSPSSLSASVGDRITITCRASQSISRYLNWYQQKPGKAPKLLIYAASSLQSGIPSRFSGSGSGTDFTLTINSLQPEDFATYFCQQSYSPPFTFGEGTKVDIKRTVAAPSVFIFPPSDEQLKSGTASVVCLLNNFYPREAKVQWKVDNALQSGNSQESVTEQDSKDSTYSLESTLTLSKADYEKHKVYACEVTHQGLSSPVTKSFNRGEC
heavy 1: not shown
light 2: not shown
heavy 2: B3 heavy 2
B5: iPS:327112 (bispecific antibody, human IgG1, kappa, lambda, N297G)
light 1: B3 light 1 with E100P
heavy 1: not shown
light 2: not shown
heavy 2: not shown
B6: iPS:327104 (bispecific antibody, human IgG1, kappa, lambda, N297G)
light 1: B3 light 1 with E100P
heavy 1: not shown
light 2: not shown
heavy 2: not shown
B7: iPS:327274 (bispecific antibody, human IgG1, kappa, lambda, N297G)
light 1: B1 light 1 with P100E
heavy 1: not shown
light 2: not shown
heavy 2: B3 heavy 2 with G30S, A63T, T90A, F97Y
B8: iPS:327273 (bispecific antibody, human IgG1, kappa, lambda, N297G)
light 1: not shown
heavy 1: not shown
light 2: not shown
heavy 2: B3 heavy 2 with G30S, A63T, T90A, F97Y
B9: iPS:327270 (bispecific antibody, human IgG1, kappa, lambda, N297G)
light 1: B3 light 1 with E100P
heavy 1: not shown
light 2: not shown
heavy 2: not shown
B10: iPS:327272 (bispecific antibody, human IgG1, kappa, lambda, N297G)
light 1: B4 light 1
heavy 1: not shown
light 2: not shown
heavy 2: B3 heavy 2 with G30S, A63T, T90A, F97Y
B11: iPS:326654 (bispecific antibody, human IgG2, kappa, lambda)
light 1: B3 light 1 with E100P
heavy 1: QVQLVESGGGVVQPGRSLRLSCAASGFTFSRFAMHWVRQAPGKGLEWVAVISYDGGNKYYAESVKGRFTISRDNSKNTLYLQMNSLRAEDTALFYCARGYDVLTGYPDYWGQGTLVTVSSASTKGPSVFPLAPCSRSTSESTAALGCLVKDYFPEPVTVSWNSGALTSGVHTFPAVLQSSGLYSLKSVVTVPSSNFGTQTYTCNVDHKPSNTKVDKTVERKCCVECPPCPAPPVAGPSVFLFPPKPKDTLMISRTPEVTCVVVDVSHEDPEVQFNWYVDGVEVHNAKTKPREEQFNSTFRVVSVLTVVHQDWLNGKEYKCKVSNKGLPAPIEKTISKTKGQPREPQVYTLPPSREEMTKNQVSLTCLVDGFYPSDIAVEWESNGQPENNYDTTPPMLDSDGSFFLYSDLTVDKSRWQQGNVFSCSVMHEALHNHYTQKSLSLSPGK
light 2: not shown
heavy 2: not shown
B12: iPS:327275 (bispecific antibody, human IgG1, kappa, lambda, N297G)
light 1: B3 light 1
heavy 1: not shown
light 2: not shown
heavy 2: B3 heavy 2 with G30S, A63T, T90A, F97Y
B13: iPS:386705 (bispecific antibody, human IgG1, lambda, N297G)
light: QSVLTQPPSVSAAPGQKVTISCSGSSSNIGNNYVSWYQQLPGTAPKLLIYDNNKRPSGIPDRFSGSKSGTSTTLGITGLQTGDEADYYCGTWDSRLSAVVFGGGTKLTVLGQPKANPTVTLFPPSSEELQANKATLVCLISDFYPGAVTVAWKADGSPVKAGVETTKPSKQSNNKYAASSYLSLTPEQWKSHRSYSCQVTHEGSTVEKTVAPTECS
heavy: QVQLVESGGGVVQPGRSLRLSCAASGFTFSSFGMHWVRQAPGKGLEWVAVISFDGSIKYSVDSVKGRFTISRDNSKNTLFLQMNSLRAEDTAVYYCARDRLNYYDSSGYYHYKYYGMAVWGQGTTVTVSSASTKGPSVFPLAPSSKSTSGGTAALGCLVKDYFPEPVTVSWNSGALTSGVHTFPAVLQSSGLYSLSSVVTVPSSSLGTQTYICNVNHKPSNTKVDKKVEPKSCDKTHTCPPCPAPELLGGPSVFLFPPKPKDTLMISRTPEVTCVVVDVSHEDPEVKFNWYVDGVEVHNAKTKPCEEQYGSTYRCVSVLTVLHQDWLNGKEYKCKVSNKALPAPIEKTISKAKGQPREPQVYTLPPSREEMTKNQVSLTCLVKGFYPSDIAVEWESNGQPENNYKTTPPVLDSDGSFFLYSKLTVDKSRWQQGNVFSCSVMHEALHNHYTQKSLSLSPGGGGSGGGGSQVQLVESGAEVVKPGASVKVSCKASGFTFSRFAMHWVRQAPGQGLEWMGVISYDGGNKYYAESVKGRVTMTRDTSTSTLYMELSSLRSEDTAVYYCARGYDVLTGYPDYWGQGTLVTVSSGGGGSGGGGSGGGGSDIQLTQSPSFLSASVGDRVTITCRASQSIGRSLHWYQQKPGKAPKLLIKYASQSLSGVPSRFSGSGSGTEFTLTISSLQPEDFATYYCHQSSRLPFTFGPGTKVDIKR
B14: iPS:386711 (bispecific antibody, human IgG1, lambda, N297G)
light: B13 light with T72A, G75A
heavy: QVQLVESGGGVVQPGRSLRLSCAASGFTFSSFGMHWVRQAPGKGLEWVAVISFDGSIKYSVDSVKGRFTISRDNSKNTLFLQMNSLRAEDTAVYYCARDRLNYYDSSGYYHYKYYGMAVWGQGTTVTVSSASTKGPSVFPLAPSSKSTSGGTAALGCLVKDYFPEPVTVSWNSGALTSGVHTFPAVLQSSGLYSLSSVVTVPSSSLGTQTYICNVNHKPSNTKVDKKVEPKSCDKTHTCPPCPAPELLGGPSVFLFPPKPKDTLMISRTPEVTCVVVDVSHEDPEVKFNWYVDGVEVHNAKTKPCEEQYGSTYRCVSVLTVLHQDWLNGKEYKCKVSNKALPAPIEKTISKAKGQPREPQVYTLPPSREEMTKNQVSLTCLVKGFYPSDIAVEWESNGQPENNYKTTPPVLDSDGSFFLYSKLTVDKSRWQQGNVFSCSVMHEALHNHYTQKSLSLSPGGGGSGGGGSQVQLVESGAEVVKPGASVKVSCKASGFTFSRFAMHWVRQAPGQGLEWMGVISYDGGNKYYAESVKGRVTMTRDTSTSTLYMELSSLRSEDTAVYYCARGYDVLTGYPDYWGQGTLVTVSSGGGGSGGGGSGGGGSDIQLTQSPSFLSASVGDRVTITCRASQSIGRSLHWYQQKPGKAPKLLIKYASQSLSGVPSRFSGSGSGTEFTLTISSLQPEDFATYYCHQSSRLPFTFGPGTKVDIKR
B15: iPS:386713 (bispecific antibody, human IgG1, lambda, N297G)
light: B13 light with T72A
heavy: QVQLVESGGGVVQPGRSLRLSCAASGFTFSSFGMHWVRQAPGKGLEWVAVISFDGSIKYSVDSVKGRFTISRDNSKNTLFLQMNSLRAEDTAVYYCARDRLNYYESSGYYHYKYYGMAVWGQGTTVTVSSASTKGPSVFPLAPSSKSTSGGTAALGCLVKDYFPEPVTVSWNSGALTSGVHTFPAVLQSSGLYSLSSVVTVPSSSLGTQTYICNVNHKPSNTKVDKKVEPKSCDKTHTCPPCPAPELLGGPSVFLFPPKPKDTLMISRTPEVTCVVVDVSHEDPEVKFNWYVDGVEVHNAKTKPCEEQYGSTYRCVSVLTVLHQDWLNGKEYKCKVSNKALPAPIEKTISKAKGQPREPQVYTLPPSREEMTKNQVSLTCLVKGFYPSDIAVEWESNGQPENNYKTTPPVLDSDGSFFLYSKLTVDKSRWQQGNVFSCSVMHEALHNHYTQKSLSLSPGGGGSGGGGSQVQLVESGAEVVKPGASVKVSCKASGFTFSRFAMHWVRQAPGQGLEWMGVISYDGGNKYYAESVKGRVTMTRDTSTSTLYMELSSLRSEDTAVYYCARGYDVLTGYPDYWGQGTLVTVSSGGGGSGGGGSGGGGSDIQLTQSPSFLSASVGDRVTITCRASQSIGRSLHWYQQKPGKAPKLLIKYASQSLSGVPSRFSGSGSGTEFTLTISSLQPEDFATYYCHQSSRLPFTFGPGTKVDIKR
B16: iPS:386707 (bispecific antibody, human IgG1, lambda, N297G)
light: B13 light
heavy: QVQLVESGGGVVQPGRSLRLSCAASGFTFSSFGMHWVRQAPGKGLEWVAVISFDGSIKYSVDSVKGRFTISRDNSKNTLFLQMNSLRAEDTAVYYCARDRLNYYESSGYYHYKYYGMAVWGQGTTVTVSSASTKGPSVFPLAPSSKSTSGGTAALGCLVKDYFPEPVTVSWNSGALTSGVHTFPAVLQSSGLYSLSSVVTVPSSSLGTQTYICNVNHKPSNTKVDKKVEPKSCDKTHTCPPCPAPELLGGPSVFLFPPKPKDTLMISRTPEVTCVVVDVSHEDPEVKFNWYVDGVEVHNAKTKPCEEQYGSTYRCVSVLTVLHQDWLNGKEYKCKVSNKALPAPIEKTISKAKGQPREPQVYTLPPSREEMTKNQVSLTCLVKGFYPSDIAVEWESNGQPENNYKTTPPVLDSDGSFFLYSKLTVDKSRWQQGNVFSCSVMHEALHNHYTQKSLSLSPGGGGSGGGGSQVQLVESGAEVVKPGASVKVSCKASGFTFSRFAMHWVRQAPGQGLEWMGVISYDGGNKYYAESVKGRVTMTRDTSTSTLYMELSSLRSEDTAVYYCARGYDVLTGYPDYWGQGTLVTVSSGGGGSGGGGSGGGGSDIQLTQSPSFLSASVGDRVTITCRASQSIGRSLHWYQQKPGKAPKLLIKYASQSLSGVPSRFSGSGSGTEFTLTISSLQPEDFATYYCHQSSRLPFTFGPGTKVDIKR
B17: iPS:386709 (bispecific antibody, human IgG1, lambda, N297G)
light: B13 light with T72A
heavy: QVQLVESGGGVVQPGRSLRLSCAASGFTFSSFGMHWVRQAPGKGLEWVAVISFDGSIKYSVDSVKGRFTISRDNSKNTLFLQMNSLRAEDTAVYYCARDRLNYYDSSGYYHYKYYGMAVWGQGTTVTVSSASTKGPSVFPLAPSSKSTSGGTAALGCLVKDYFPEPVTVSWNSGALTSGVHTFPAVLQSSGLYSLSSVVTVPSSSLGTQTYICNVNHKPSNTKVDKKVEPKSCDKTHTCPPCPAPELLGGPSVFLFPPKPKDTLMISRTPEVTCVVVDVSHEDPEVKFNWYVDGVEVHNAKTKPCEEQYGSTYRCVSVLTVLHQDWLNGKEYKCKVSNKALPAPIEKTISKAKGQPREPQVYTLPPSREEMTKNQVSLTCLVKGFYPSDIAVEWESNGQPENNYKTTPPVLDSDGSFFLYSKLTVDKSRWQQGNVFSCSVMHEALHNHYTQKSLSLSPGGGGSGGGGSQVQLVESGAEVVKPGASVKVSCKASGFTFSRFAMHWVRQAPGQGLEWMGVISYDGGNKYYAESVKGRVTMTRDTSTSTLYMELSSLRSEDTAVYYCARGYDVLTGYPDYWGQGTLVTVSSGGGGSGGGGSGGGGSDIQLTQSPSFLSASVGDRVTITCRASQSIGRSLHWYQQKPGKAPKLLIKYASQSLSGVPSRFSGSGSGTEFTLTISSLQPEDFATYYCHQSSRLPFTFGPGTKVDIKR

Target: T1, human PAC1 receptor
Test: cell-based or functional assay

| % inhibition of human PAC1 [%] | Binder |
| --- | --- |
| 65 | B1 |
| 8 | B2 |
| 74 | B3 |
| 63 | B4 |
| 104 | B5 |
| 95 | B6 |
| 22 | B7 |
| 10 | B8 |
| 82 | B9 |
| 62 | B10 |
| 99 | B11 |
| 86 | B12 |

Target: T2, human CGRP receptor (human, UniProt Q16602 23-461; O60894 27-148)
Test: cell-based or functional assay

T2 sequence (Q16602 23-461 limits assumed, chain 1 of 2): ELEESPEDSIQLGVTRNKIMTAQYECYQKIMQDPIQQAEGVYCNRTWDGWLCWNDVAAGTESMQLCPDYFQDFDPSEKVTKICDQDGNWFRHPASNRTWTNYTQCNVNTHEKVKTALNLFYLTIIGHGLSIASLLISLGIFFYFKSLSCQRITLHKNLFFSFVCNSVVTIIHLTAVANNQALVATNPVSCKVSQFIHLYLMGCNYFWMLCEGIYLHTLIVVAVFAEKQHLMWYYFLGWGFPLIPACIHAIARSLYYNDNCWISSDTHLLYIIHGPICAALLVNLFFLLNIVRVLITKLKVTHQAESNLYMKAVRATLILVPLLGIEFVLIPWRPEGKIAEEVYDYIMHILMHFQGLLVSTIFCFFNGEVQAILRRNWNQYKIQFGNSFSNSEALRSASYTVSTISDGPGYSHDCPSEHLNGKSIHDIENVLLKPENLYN
T2 sequence (O60894 27-148 limits assumed, chain 2 of 2): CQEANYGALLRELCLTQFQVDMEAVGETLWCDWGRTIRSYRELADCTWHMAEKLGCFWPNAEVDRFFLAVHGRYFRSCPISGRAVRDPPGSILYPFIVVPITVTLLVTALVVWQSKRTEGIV

| % inhibition of human CGRPR [%] | Binder |
| --- | --- |
| 88 | B1 |
| 79 | B2 |
| 66 | B3 |
| 81 | B4 |
| 84 | B5 |
| 81 | B6 |
| 87 | B7 |
| 81 | B8 |
| 71 | B9 |
| 81 | B10 |
| 79 | B11 |
| 85 | B12 |

Target: T1, human PAC1 receptor
Test: cell-based or functional assay
Remark: another data set of the same source

| Human PAC1 Receptor IC50 [nM] | Binder |
| --- | --- |
| 605 | B13 |
| 1210 | B14 |
| 603 | B15 |
| 740 | B16 |
| 432 | B17 |

Target: T2, human CGRP receptor
Test: cell-based or functional assay
Remark: another data set of the same source

| Human CGRP Receptor IC50 [nM] | Binder |
| --- | --- |
| 0.43 | B13 |
| 0.53 | B14 |
| 0.37 | B15 |
| 0.47 | B16 |
| 0.47 | B17 |
